Consider 5 molecules from patent US7550150B2, “Methods of treating or preventing a disease, disorder or condition associated with a viral infection” (Barros Research Institute, priority 2005, dated 2009).

Where “and” joins values, the source holds several entries; their conditions need not be identical. Equal entries are not always repeated. Where two headings read alike, the source gives them in different places. Marks after values point to notes of the source that are not given here.

The conditions of data set [1]: for tolerability in toxicity control animals: all surviving and losing no weight during therapy; for Tox Controls Surv/Total: uninfected, two treatments.
The nature of data set [2]: Uninfected toxicity controls (Example 7). The class given is in vivo, BALB/c mice. On the procedure: Experiment Design: Animals were injected i.p. with either 10^−3 dilution of Banzi virus stocks diluted in minimal essential media (MEM), or were sham-inoculated. This virus concentration had previously produced approximately 90% mortality in mice. Animals were treated with two doses of 10, 1, 0.1 μg/mouse of Barrogen or with drug vehicle (placebo group). The first dose was administered 4-6 h prior to virus inoculation. The second dose was given 48 h later. As a positive control a group of 15 infected mice were treated with a single dose of Ampligen® 24 h prior to virus inoculation at a dose of 1 mg/kg. Groups of 3 sham-inoculated animals used as toxicity controls were treated with identical compounds on identical schedules to the infected animals.

The subject of data set [3] is Banzi virus (H336 strain). Description: Banzi virus infection in mice (Example 7). Type of data set: in vivo, BALB/c mice. To be noted: for Infected, treated MDD ± SD: mice dying before day 21; for weight loss: placebo 9.6%; for Average brain titer: placebo 6.9.
Data set [4] concerns Punta Toro virus, Adames strain. Further details: species or system C57BL/6 mice. To be noted: mouse, in vivo.
For data set [5] the following is noted: toxicity controls; 75 mg/kg/day i.p. bid x5.
A further data set has as its system influenza virus. To be noted: orally; cited from earlier work.
Data set [6] relates to Banzi virus (H336 strain). The class given is in vivo, Balb/c mice. To be noted: for Infected, treated % survival (alive/total): 21 days; for Infected, treated % Mean wt. change: day 0 vs day 10.
The subject of data set [7] is Punta Toro virus, Adames strain. The arrangement: species or system C57BL/6 mice. As to conditions: mouse, in vivo. This is another data set of the same source.
The conditions of data set [8]: dosages used; no deaths or weight loss.
The conditions of data set [9]: dosages used; no deaths or weight loss. The source holds these as a separate data set.
For data set [10] the following is noted: every dose used.
[11] abbreviates: 0.1 μg/treatment i.p. −4 hpi and 2 dpi.
Setting [12] is: 1 μg/treatment i.p. −4 hpi and 2 dpi.
The mark [13] stands for this setting: 0.1 μg/mouse/day i.p. 4-6 h pre-virus and 48 hr later.
Setting [14] is: 1 μg/mouse/day i.p. 4-6 h pre-virus and 48 hr later.
Where [15] appears, read: 10 μg/mouse/day i.p. 4-6 h pre-virus and 48 hr later.

For the molecule “GM-CSF: Granulocyte macrophage - colony stimulating factor”, the “tolerability in toxicity control animals” value in data set [1] is “well tolerated”. In addition, the “Tox Controls Surv/Total” value in [1] (20 ng i.p.) and in data set [1] (200 ng i.p.) was 3/3 each time.
Turning to “poly I · poly C12u [Ampligen, reference compound]”, the “Uninfected toxicity control Surv/Total” value in data set [2] (1 mg/kg i.p. single dose) is on record as 3/3 (100%). In addition, in data set [3] (1 mg/kg i.p. single dose 24 h pre-virus exposure), the “Infected, treated Surv/Total” value is reported as 10/10 (100%)***. The survival in data set [3] (1 mg/kg single dose 24 h prior, p<0.001) was determined as 100%. Moreover, the “animals with virus detected in brain” value in data set [3] (1 mg/kg, 8 dpi) is recorded as 1 of the 5. Also, the brain virus titer in data set [3] (1 mg/kg, 8 dpi, placebo 6.9 log10 CCID50/g of tissue) came out at 5.6. This molecule had an average weight gain in data set [3] (1 mg/kg, by 8 dpi) of 1.9%.
For `NC(=O)c1ncn([C@@H]2O[C@H](CO)[C@@H](O)[C@H]2O)n1` [Ribavirin, reference compound], the Liver virus entry in data set [4] is reported as “not detectable”. The “weight loss during the treatment period” value in [5] is given as 0.8 g.
In the case of `CCOC(=O)C1=C[C@@H](OC(CC)CC)[C@H](NC(C)=O)[C@@H](N)C1` [Oseltamivir], the “doses down to which highly active against influenza virus infections in mice” value in the data set with influenza virus is listed as approximately 1 mg/kg/day.

B1: rBBX-01: Recombinant Apicomplexa-related protein (ARP) having the sequence of SEQ ID NO:20; termed Barrogen, also called rBBX-01 or E1 (protein, listed as Eimeria tenella)
chain: GEEADTQAWDTSVREWLVDTGRVFAGGVASIADGCRLFGAAVEGEGNAWEELVKTNYQIEVPQEDGTSISVDCDEAETLRQAVVDGRAPNGVYIGGTKYKLAEVKRDFTFNDQNYDVAILGKNKGGGFLIKTPNENVVIALYDEEKEQNKADALTTALNFAEYLYQGGF
On to B1, for which the “Infected, treated % survival (alive/total)” value in data set [6] (setting [11]) and in data set [6] (setting [12]) was 47% (7/15)** in each case. The “Infected, treated % Mean wt. change” value is -1.4 g in data set [6] (setting [11]) and -1.0 g in data set [6] (setting [12]). In addition, the mean-day-to-death result in data set [6] (Barrogen-treated vs placebo-treated mice (FIG. 30)) was “significant increase”. Further, the “mice protected (survival)” value in data set [4] is listed as 100%. Also, the “reduction of serum viral load” value in data set [4] is reported as “more than 2 logs”. For the same molecule, the “serum ALT” value in [4] and in data set [7] was “markedly reduced” throughout. Further, the Hepatic icterus reduced in [7] is given as 17-43%. Besides, the “mice protected / cured” value in [7] was found to be 100%. For the same molecule, in data set [7], the serum virus titers result is listed as “significantly reduced”. Further, in data set [7] (ip), the “Mean Liver Score ± SD” value is 2.6 ± 0.2 and 2.7 ± 0.3 and 2.0 ± 0.6 and 2.9 ± 0.5. Further, the “tolerability in toxicity controls” value in data set [8] and in data set [9] was “well tolerated” throughout. In addition, the “Uninfected toxicity control Surv/Total” value in [2] (0.1 μg/mouse/day i.p., two doses 48 h apart) is 3/3 (100%); in [2] (1 μg/mouse/day i.p., two doses 48 h apart) it was 3/3 (100%); in data set [2] (10 μg/mouse/day i.p., two doses 48 h apart), 3/3 (100%). For the same molecule, the “tolerability in toxicity control animals” value in data set [1] is given as “well tolerated”. The “tolerability in toxicity control mice” value in data set [10] is “well tolerated”. Besides, the “Infected, treated Surv/Total” value in data set [3] (setting [13]) was 5/10 (50%)*; in data set [3] (setting [14]), 7/10 (70%)***; in data set [3] (setting [15]), 4/10 (40%). In addition, the “Infected, treated MDD ± SD” value came out at 8.4 ± 5.5 in data set [3] (setting [13]), 14.3 ± 1.5 in data set [3] (setting [14]) and 14.2 ± 3.5 in data set [3] (setting [15]). Also, in data set [3] (0.1 μg/mouse, 8 dpi), the “virus in the brains” value is listed as “No virus was detected”. Further, the weight loss in data set [3] (0.1 μg/mouse, 8 dpi) stood at 0.2%; in [3] (1 μg/mouse, 8 dpi) it was 0.5%; in [3] (10 μg/mouse, 8 dpi), 1.3%. Also, the survival in data set [3] (0.1 μg/mouse, placebo 10%, p<0.05) worked out at 50%; in [3] (1 μg/mouse, placebo 10%, p<0.001), 70%; in data set [3] (10 μg/mouse, not significantly higher than placebo), 40%. Further, the “animals with virus detected in brain” value is 2 out of 5 in [3] (1 μg/mouse, 8 dpi) and 2 out of 5 in data set [3] (10 μg/mouse, 8 dpi). Moreover, the Average brain titer is 4.6 log10 CCID50 in data set [3] (1 μg/mouse, 8 dpi) and 2.8 log10 CCID50 in data set [3] (10 μg/mouse, 8 dpi).
